Reference: patent EP1496124A1 (Oklahoma Medical Research Foundation, dated 2005)
Each block holds one molecule with its values, some of them ahead of it. Ends that are not written are not given here.

Columns and labels:
[1] = target: M2pd (modified M2 containing amino acids from Ala-8P to Ala326) (human) (UniProt P56817); assay: cell-based or functional assay
[2] = target: T1, recombinant memapsin 2 (human, UniProt P56817 14-454, limits assumed); assay: enzyme inhibition with a synthetic fluorogenic peptide substrate
T1 construct: also called M2; beta-secretase
T1 sequence (P56817 14-454 limits assumed): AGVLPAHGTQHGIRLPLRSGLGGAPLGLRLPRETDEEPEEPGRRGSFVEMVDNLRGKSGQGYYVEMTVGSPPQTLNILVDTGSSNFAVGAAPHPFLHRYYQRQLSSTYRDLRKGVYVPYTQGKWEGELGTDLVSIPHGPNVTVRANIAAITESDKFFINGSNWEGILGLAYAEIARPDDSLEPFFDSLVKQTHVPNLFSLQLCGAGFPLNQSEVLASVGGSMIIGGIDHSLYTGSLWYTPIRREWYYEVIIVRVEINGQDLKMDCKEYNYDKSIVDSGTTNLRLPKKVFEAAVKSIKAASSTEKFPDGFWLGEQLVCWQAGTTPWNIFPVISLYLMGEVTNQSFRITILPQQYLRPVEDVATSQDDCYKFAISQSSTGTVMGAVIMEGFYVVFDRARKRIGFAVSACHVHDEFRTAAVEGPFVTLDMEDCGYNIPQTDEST

[3] = target: T1, recombinant memapsin 2; assay: Ki as stated in the crystallisation example; assay not described there
[4] = target: T1, recombinant memapsin 2; assay: comparison of inhibition constants

Chain of M2pd (modified M2 containing amino acids from Ala-8P to Ala326) (human) (P56817 22-501 limits assumed): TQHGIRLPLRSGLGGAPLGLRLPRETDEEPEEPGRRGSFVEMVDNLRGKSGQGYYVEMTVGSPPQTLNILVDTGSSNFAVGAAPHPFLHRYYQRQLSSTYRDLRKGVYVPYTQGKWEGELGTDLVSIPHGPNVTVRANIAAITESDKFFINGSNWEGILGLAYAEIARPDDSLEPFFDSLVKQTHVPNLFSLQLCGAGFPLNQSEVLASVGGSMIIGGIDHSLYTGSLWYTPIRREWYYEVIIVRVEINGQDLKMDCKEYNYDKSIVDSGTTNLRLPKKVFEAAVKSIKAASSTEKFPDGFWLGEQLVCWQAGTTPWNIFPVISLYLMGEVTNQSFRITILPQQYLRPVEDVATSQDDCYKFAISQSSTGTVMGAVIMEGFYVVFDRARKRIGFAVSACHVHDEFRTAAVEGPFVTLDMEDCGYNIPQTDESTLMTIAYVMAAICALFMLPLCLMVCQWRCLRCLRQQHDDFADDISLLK

Molecule: Pepstatin A (peptide)
IC50 (inhibition of enzyme activity) [1]: 300000 nM

Molecule: VNLAAEF (also: Leu3-Ala4 bond replaced by hydroxyethylene isostere -CH(OH)-CH2-) [OM99-2 with P4 Glu absent]
fold increase in Ki against OM99-2 [4]: 10 fold

The next lines start with the values.

Ki [2]: 30 nM
Molecule: OM99-1 (peptide)

Ki [3]: 10 nM
B1: OM99-2 (peptide)
peptide: EVNLAAEF
modifications: also: Leu4-Ala5 peptide bond replaced by hydroxyethylene isostere -CH(OH)-CH2-
notes: Synthetic substrate analogue based on the beta-secretase site of Swedish mutant APP
